# Test results as given in US20190300617A1 (Amgen, published 2019).
# B1: Erenumab SE-UHPLC Fraction Main (antibody, human IgG2, lambda, V domains shown)
# VH: QVQLVESGGGVVQPGRSLRLSCAASGFTFSSFGMHWVRQAPGKGLEWVAVISFDGSIKYSVDSVKGRFTISRDNSKNTLFLQMNSLRAEDTAVYYCARDRLNYYDSSGYYHYKYYGMAVWGQGTTVTVSS
# VL: QSVLTQPPSVSAAPGQKVTISCSGSSSNIGNNYVSWYQQLPGTAPKLLIYDNNKRPSGIPDRFSGSKSGTSTTLGITGLQTGDEADYYCGTWDSRLSAVVFGGGTKLTVLG
# B2: Erenumab SE-UHPLC Fraction HMW 1 (antibody, human IgG2, lambda, V domains shown)
# VH: B1 VH
# VL: B1 VL
# B3: Erenumab SE-UHPLC Fraction HMW 2 (antibody, human IgG2, lambda, V domains shown)
# VH: B1 VH
# VL: B1 VL
# B4: Erenumab HIC-HPLC Pre-peak Fraction F1 (antibody, human IgG2, lambda, V domains shown)
# VH: B1 VH
# VL: B1 VL
# modifications: Asp105 isomerization 0.6%; Asp105 succinimide 0.2%; Asn102 deamidation ND; Leu195/Ser196 cleavage 10.9%; further cleavage sites Leu315/Thr316, Ser197/Val198, Leu192/Tyr193, Gly108/Tyr109, Asp105/Ser106
# B5: Erenumab HIC-HPLC Post-peak Fraction F7 (antibody, human IgG2, lambda, V domains shown)
# VH: B1 VH
# VL: B1 VL
# modifications: Asp105 isomerization (isoAsp) 2.4%; Asp105 succinimide 0.1%; Asn102 deamidation ND; Leu195/Ser196 cleavage 1.1%
# B6: Erenumab HIC-HPLC Post-peak Fraction F6 (antibody, human IgG2, lambda, V domains shown)
# VH: B1 VH
# VL: B1 VL
# modifications: Asp105 isomerization (isoAsp) 13.2%; Asp105 succinimide 0.1%; Asn102 deamidation ND; Leu195/Ser196 cleavage 0.6%
# B7: Erenumab HIC-HPLC Pre-peak Fraction F3 (antibody, human IgG2, lambda, V domains shown)
# VH: B1 VH
# VL: B1 VL
# modifications: Asp105 isomerization (isoAsp) 19.6%; Asp105 succinimide 12.6%; Asn102 deamidation 1.2%; Leu195/Ser196 cleavage 0.5%
# B8: Erenumab HIC-HPLC Pre-peak Fraction F2 (antibody, human IgG2, lambda, V domains shown)
# VH: B1 VH
# VL: B1 VL
# modifications: Asp105 isomerization (isoAsp) 26.4%; Asp105 succinimide 1.4%; Asn102 deamidation 0.1%; Leu195/Ser196 cleavage 1.0%
# B9: Erenumab HIC-HPLC Main Fraction F5 (antibody, human IgG2, lambda, V domains shown)
# VH: B1 VH
# VL: B1 VL
# modifications: Asp105 isomerization ND; Asp105 succinimide 0.1%; Asn102 deamidation ND; Leu195/Ser196 cleavage 0.3%
# B10: Erenumab HIC-HPLC Pre-peak Fraction F4 (antibody, human IgG2, lambda, V domains shown)
# VH: B1 VH
# VL: B1 VL
# modifications: Asp105 isomerization (isoAsp) 5.5%; Asp105 succinimide 4.3%; Asn102 deamidation 11.6%; Leu195/Ser196 cleavage 0.4%
# B11: Erenumab CEX-HPLC Basic Fraction F9 (antibody, human IgG2, lambda, V domains shown)
# VH: B1 VH
# VL: B1 VL
# modifications: disulfide isoforms by RP-HPLC: 11.0% IgG2-B, 31.3% IgG2-A/B, 55.9% IgG2-A
# B12: Erenumab CEX-HPLC Acidic Fraction F4 (antibody, human IgG2, lambda, V domains shown)
# VH: B1 VH
# VL: B1 VL
# modifications: disulfide isoforms by RP-HPLC: 7.0% IgG2-B, 52.5% IgG2-A/B, 39.4% IgG2-A
# B13: Erenumab CEX-HPLC Main Fraction F5 (antibody, human IgG2, lambda, V domains shown)
# VH: B1 VH
# VL: B1 VL
# modifications: disulfide isoforms by RP-HPLC: 2.9% IgG2-B, 33.9% IgG2-A/B, 62.4% IgG2-A
# B14: Erenumab CEX-HPLC Acidic Fraction F3 (antibody, human IgG2, lambda, V domains shown)
# VH: B1 VH
# VL: B1 VL
# modifications: disulfide isoforms by RP-HPLC: 11.2% IgG2-B, 55.1% IgG2-A/B, 32.4% IgG2-A
# B15: Erenumab CEX-HPLC Main Fraction F6 (antibody, human IgG2, lambda, V domains shown)
# VH: B1 VH
# VL: B1 VL
# modifications: disulfide isoforms by RP-HPLC: 3.9% IgG2-B, 27.8% IgG2-A/B, 65.5% IgG2-A
# B16: Erenumab CEX-HPLC Basic Fraction F8 (antibody, human IgG2, lambda, V domains shown)
# VH: B1 VH
# VL: B1 VL
# modifications: disulfide isoforms by RP-HPLC: 2.0% IgG2-B, 23.3% IgG2-A/B, 73.3% IgG2-A
# B17: Erenumab CEX-HPLC Acidic Fraction F2 (antibody, human IgG2, lambda, V domains shown)
# VH: B1 VH
# VL: B1 VL
# modifications: disulfide isoforms by RP-HPLC: 21.4% IgG2-B, 40.4% IgG2-A/B, 35.8% IgG2-A
# B18: Erenumab CEX-HPLC Basic Fraction F7 (antibody, human IgG2, lambda, V domains shown)
# VH: B1 VH
# VL: B1 VL
# modifications: disulfide isoforms by RP-HPLC: 3.9% IgG2-B, 28.6% IgG2-A/B, 65.4% IgG2-A
# Biological target: T1, human CGRP receptor (human, UniProt Q16602 23-461; O60894 27-148)
# T1 sequence (Q16602 23-461, chain 1 of 2): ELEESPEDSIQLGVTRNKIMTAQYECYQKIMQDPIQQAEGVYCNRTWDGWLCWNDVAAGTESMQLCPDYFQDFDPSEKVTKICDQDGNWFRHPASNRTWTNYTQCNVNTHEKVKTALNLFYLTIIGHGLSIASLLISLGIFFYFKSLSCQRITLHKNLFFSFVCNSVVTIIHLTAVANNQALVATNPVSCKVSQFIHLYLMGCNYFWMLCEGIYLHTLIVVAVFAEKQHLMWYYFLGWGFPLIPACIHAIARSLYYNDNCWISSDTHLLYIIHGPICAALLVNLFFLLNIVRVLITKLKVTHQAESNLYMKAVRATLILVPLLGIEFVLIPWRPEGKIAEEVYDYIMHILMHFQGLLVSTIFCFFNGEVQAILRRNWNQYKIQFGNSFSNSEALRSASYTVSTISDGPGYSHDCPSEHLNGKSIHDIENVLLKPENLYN
# T1 sequence (O60894 27-148, chain 2 of 2): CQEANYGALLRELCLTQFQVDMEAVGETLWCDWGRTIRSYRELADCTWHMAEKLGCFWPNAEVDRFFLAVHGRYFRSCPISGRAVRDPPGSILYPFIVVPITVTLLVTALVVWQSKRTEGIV
# Test: cell-based or functional assay
row,% Relative Potency by Cell-Based Bioassay [%],Binder
1,97,B1
2,42,B2
3,62,B3

# Biological target: T1, human CGRP receptor
# Test: cell-based or functional assay
# Remark: another data set of the same source
row,% Relative Potency by Cell-Based Bioassay [%],Binder
1,33,B4
2,68,B5
3,77,B6
4,35,B7
5,24,B8
6,107,B9
7,34,B10

# Biological target: T1, human CGRP receptor
# Test: cell-based or functional assay
# Remark: another data set of the same source
row,% Relative Potency by Cell-Based Bioassay [%],Binder
1,98,B11
2,82,B12
3,101,B13
4,71,B14
5,92,B15
6,102,B16
7,58,B17
8,96,B18
